Experiments:
[1] = biological target: gp120 derived from the HIV-1 strain LAI (Repligen) (HIV-1 strain LAI) (UniProt P03377); assay: SPR (BIAcore), gp120 immobilized
[2] = biological target: gp120 derived from the HIV-1 strain LAI (Repligen) (HIV-1 strain LAI) (UniProt P03377); assay: BIAcore sandwich, Fab 2 on gp120 held by Fab 1; competitor (Fab 1): b13
[3] = biological target: gp120 derived from the HIV-1 strain LAI (Repligen) (HIV-1 strain LAI) (UniProt P03377); assay: BIAcore sandwich, Fab 2 on gp120 held by Fab 1; competitor (Fab 1): b12
[4] = biological target: gp120 derived from the HIV-1 strain LAI (Repligen) (HIV-1 strain LAI) (UniProt P03377); assay: SPR (BIAcore), kon/koff
[5] = biological target: gp120 derived from the HIV-1 strain LAI (Repligen) (HIV-1 strain LAI) (UniProt P03377); assay: BIAcore sandwich, same Fab injected twice (negative control); competitor: b6
[6] = biological target: HXBc2 mature gp120 expressed by COS-1 cells (HIV-1 (HXBc2 clone)) (UniProt P04578)
[7] = biological target: recombinant gp120 of HIV-1 strain IIIB (HIV-1 strain IIIB) (UniProt P04578); assay: inhibition ELISA, free gp120 titrated against plate-bound gp120
[8] = biological target: multimeric HXBc2 envelope glycoprotein complex on the transfected COS-1 cell surface (HIV-1 (HXBc2 clone)) (UniProt P04578); assay: Fab on transfected COS-1 cells, immunoprecipitation
[9] = biological target: gp120 derived from the HIV-1 strain LAI (Repligen) (HIV-1 strain LAI) (UniProt P03377); assay: BIAcore sandwich, Fab 2 on gp120 held by Fab 1; competitor (Fab 1): b6
[10] = biological target: HXBc2 gp120 mutant NO V1/V2 (HIV-1 (HXBc2 clone of strain LAI)) (UniProt P04578); assay: capture ELISA (D7324)
[11] = biological target: gp120 derived from the HIV-1 strain LAI (Repligen) (HIV-1 strain LAI) (UniProt P03377); assay: BIAcore sandwich, same Fab injected twice (negative control); competitor: b12
[12] = biological target: HXBc2 mature gp120 expressed by COS-1 cells (HIV-1 (HXBc2 clone)) (UniProt P04578); assay: Fab on radiolabeled COS-1 cells, lysis, precipitation, gel densitometry
[13] = biological target: recombinant gp120 of HIV-1 strain IIIB (HIV-1 strain IIIB) (UniProt P04578); assay: SPR (BIAcore)

With Fab b6 the koff [1] was 0.00016 s⁻¹, the kon [1] was 16000 M⁻¹ s⁻¹ and the response (RU), background subtracted [2] was 21 RU. The response (RU), background subtracted [3] was 17 RU, the Ka [4] was 9.7e+07 M⁻¹ and the response (RU), background [5] was 38 RU. It also gave a Ka [6] of under 6e+06 M⁻¹, an IC50 [7] of 1 nM and a Fab concentration at saturation [8] of over 150 µg/mL. The response (RU), background subtracted [9] was 0 RU and the Fab/reference serum binding ratio [10] was 1.48.
Fab b12 gave a response (RU), background [11] of 17 RU, a koff [1] of 0.00043 s⁻¹ and a kon [1] of 45000 M⁻¹ s⁻¹. The response (RU), background subtracted [2] was 22 RU, the response (RU), background subtracted [3] was 0 RU and the Ka [4] was 1.1e+08 M⁻¹. For the same substance, the Ka [6] was 3e+07 M⁻¹, the IC50 [7] was 1 nM and the Fab concentration at saturation [8] was 100 µg/mL. The Fab/reference serum binding ratio [10] was 0.23 and the excess of gp120 over gp160 immunoreacted [12] was over 50%.
In the case of b12 IgG1 (antibody), the Ka [13] is reported as 1.3e+09 M⁻¹.

Reference: patent US20030187247A1
